Literature values, collected in article PMC7156917.

Assays:
[1] = target: CXCR4 (Homo sapiens) (UniProt P61073); test: SPR
[2] = target: CCR5 (Homo sapiens) (UniProt P51681); test: equilibrium binding assay
Chain of UniProt P51681 (P51681 whole entry): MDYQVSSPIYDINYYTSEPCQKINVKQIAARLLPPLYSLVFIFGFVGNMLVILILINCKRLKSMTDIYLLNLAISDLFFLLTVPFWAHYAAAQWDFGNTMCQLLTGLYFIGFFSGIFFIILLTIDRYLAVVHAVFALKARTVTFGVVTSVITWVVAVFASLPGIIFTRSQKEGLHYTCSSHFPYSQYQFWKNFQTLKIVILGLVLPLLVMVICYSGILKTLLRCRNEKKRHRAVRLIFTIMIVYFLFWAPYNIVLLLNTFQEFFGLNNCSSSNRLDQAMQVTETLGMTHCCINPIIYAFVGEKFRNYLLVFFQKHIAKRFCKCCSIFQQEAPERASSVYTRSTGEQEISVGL

Chain of UniProt P61073 (P61073 whole entry): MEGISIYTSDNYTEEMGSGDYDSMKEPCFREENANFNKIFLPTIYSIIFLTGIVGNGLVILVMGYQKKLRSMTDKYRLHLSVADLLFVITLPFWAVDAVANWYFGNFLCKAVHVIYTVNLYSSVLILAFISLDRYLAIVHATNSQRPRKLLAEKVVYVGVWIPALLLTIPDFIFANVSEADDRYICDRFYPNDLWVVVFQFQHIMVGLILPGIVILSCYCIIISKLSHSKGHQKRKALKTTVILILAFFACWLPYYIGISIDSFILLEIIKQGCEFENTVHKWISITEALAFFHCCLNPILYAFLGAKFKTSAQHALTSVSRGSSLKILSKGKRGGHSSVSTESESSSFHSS

Substance: HIV Env gp120 gp120 (from UniProt O70902)
- Kd [1]: 500 nM
- Kd [2]: 5 nM
